Laboratory results: paper PMC2169334

Biological target: ankyrin-B (UniProt Q01484)
Chain of UniProt Q01484 (Q01484 whole entry): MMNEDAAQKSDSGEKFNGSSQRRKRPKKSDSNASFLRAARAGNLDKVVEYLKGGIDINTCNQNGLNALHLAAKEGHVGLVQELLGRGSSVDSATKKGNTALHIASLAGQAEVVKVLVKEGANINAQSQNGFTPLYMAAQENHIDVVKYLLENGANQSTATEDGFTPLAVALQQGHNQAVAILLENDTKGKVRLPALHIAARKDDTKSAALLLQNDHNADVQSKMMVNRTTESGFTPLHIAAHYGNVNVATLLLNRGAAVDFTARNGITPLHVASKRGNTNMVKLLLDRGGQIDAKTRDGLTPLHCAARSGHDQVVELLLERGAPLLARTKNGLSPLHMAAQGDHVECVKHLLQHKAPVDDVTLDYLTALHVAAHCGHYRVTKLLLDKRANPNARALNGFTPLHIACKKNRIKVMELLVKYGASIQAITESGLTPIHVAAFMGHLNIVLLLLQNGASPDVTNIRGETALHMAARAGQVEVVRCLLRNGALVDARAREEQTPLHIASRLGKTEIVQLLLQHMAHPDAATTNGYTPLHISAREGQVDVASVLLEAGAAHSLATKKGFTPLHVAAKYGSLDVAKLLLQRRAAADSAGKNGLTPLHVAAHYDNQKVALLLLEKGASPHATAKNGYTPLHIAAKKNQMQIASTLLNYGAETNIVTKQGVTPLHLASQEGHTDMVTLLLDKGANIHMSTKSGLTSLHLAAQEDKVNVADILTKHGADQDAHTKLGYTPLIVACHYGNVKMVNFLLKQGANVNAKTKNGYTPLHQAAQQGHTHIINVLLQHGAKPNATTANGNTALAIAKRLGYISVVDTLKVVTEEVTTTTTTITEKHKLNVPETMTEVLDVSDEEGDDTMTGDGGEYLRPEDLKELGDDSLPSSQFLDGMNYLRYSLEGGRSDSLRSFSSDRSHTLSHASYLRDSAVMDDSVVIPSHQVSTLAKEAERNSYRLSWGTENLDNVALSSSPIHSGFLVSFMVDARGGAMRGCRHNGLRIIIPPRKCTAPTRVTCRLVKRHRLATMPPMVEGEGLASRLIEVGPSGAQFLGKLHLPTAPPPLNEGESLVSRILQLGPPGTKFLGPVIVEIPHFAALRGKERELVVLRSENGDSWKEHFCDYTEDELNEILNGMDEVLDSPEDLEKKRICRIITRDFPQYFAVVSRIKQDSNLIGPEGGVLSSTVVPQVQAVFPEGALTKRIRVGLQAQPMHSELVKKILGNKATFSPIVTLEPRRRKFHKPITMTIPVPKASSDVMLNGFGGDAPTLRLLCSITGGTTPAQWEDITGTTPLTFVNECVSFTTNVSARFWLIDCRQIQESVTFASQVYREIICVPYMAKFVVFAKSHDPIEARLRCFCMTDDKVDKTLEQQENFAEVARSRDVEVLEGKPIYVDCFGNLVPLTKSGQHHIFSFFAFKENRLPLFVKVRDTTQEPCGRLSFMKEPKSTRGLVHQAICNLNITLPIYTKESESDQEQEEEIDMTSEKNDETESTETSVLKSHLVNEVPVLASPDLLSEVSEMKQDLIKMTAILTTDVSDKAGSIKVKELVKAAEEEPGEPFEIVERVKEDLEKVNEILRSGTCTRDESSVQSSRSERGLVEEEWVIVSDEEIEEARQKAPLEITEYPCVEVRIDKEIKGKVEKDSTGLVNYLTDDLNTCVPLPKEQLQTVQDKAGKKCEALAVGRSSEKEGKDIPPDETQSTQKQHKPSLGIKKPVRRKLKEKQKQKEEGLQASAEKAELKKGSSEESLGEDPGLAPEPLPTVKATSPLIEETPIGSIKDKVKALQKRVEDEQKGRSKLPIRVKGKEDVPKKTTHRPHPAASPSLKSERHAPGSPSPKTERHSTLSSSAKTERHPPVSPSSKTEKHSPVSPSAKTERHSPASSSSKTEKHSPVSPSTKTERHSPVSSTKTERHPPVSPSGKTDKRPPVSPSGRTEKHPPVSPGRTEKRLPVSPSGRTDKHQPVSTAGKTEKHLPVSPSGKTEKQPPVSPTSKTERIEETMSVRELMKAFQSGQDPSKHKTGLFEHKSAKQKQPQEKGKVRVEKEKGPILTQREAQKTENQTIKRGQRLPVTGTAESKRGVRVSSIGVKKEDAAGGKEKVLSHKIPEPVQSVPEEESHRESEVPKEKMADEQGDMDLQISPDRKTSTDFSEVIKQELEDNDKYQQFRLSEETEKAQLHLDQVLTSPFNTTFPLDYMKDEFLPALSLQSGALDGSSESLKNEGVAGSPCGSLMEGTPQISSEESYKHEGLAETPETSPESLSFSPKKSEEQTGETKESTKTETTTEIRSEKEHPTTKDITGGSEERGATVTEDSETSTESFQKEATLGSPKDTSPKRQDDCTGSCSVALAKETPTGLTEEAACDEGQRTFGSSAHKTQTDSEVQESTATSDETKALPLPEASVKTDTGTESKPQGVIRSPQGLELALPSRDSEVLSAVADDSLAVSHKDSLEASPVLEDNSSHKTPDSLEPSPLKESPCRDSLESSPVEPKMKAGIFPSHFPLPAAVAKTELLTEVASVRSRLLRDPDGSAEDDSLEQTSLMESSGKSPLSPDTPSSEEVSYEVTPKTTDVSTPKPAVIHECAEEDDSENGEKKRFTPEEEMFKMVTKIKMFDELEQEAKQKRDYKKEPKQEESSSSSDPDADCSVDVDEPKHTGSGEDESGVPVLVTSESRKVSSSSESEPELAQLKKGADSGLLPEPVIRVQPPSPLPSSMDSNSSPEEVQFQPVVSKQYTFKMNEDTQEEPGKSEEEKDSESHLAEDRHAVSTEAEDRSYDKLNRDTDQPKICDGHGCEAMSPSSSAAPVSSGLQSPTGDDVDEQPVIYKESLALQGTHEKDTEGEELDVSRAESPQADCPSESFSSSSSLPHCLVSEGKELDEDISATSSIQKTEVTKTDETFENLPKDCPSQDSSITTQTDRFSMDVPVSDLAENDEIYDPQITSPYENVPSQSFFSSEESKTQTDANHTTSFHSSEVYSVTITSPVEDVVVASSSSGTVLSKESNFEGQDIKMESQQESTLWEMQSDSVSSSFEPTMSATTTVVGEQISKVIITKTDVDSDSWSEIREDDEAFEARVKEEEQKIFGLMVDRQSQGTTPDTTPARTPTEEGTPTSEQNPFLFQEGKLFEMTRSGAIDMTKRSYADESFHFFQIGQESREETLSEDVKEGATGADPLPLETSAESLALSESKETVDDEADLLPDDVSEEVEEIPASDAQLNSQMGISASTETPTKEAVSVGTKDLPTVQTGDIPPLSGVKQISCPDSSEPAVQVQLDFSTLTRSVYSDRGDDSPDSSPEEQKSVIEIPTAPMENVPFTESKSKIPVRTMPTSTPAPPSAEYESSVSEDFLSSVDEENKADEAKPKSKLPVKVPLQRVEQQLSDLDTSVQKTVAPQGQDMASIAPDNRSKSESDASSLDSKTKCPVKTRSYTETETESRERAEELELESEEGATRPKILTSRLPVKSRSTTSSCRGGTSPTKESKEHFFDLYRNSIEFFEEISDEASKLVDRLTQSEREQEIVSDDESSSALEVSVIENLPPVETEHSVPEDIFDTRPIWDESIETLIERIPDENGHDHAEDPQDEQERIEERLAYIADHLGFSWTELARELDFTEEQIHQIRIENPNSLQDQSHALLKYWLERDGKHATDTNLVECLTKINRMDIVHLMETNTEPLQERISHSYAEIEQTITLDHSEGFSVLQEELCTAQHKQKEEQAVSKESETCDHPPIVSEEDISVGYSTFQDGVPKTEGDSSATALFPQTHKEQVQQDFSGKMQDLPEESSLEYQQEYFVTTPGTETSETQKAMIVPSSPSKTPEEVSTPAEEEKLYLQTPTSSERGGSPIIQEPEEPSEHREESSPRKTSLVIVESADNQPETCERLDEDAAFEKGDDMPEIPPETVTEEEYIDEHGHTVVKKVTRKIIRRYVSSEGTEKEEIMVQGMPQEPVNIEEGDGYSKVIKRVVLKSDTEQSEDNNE

Kd: 200 nM
Substance: IP3 receptor (from UniProt P29994 1-2750)
